Data as given in the RNAGym collection of RNA variant scans (doi:10.7554/elife.80360).

B1: Twister Ribozyme (parent)
chain: AACACUGCCAAUGCCGGUCCCAAGCCCGGAUAAAAGUGGAGGGGGCGG

Variants of: B1
Assay: self-cleavage, relative activity (ratio to wild type); higher = more cleavage; co-transcriptional

Point of comparison: U18A G39C, self-cleavage 0.102. Against it:
- C19A C27A — lower, 0.0712
- C19A C21U — lower, 0.0833
- U18A A30G — higher, 0.606
- U18A A30U — higher, 0.586
- G17C G45U — higher, 0.107
- G17C G45C — lower, 0.0995
- U18G U37C — lower, 0.0884
- G17A U37A — higher, 0.207
- U18C C21G — lower, 0.0463
- C19A C26U — lower, 0.0877
- U18G G39C — lower, 0.0419
- U18C G39U — higher, 0.104
- G17U G28C — lower, 0.0949
- G17U U37C — lower, 0.085
- C19G G39A — higher, 0.104
- C19G G39C — higher, 0.162
- C19G G39U — higher, 0.118
- G17U A22G — higher, 0.103
- C19G G29U — higher, 0.29
- C19G G29C — lower, 0.0886
- C19G G41A — higher, 0.113
- C19G G41C — higher, 0.136
- C19G G41U — higher, 0.104
- U18G U31C — higher, 0.106
- U18G U31G — the same, 0.102
- U18G U31A — lower, 0.0937
- U18G A30U — lower, 0.0738
- C19G G43U — higher, 0.685
- C19G G44C — higher, 0.27
- C19G G44U — higher, 0.29
- U18C G28U — higher, 0.156
- G17C A22C — higher, 0.123
- G17C A22U — lower, 0.0369
- U18C C26U — lower, 0.0772
- U18C C26G — lower, 0.0519
- G17U C46U — higher, 0.625
- G17U C46A — higher, 0.274
- G17U G44U — higher, 0.374
- G17U G44A — higher, 0.219
- C19A C46A — higher, 0.197
- G17C A23G — lower, 0.0841
- G17C A23C — lower, 0.092
- G17C A23U — lower, 0.0824
- U18A G38C — higher, 0.448
- U18A G38A — higher, 0.229
- C19G G47C — higher, 0.193
- C19G G47A — higher, 0.105
- C19G C27A — lower, 0.0851
- C19G C27G — lower, 0.0733
- C19G U31C — higher, 0.492
- G17C C26G — higher, 0.446
- C19G A40U — lower, 0.0582
- C19G A40G — higher, 0.135
- U18G G28U — lower, 0.089
- U18G G43A — lower, 0.0708
- U18G G43C — higher, 0.116
- U18A G42U — higher, 0.161
- G17C G39U — lower, 0.0818
- G17C G39C — lower, 0.0888
- C19G C26G — lower, 0.0807
- C19G C26A — lower, 0.0816
- U18A G44C — higher, 0.448
- U18A G44A — higher, 0.631
- U18A C27A — higher, 0.114
- U18A C27G — lower, 0.0805
- U18A C21G — higher, 0.395
- U18A C21A — lower, 0.084
- C19G C21U — lower, 0.101
- C19G C21A — lower, 0.0839
- C19G A34U — higher, 0.12
- C19G A34G — higher, 0.108
- G17U G43U — higher, 0.12
- U18G C21G — lower, 0.0716
- U18G C21A — higher, 0.133
- U18A G28U — higher, 0.314
- U18A G28A — higher, 0.2
- U18A G28C — higher, 0.185
- C19A G45A — higher, 0.196
- C19A G45U — higher, 0.257
- C19A G43C — higher, 0.317
- U18C U31A — higher, 0.54
- U18C U31G — higher, 0.477
